Measured values as given in article PMC6255212, “Coupled molecular dynamics mediate long- and short-range epistasis between mutations that affect stability and aggregation kinetics” (Proceedings of the National Academy of Sciences of the …, 2018).
Where a chain is given by its changes, count along the chain named. Names may count otherwise.

B1: Escherichia coli transketolase (TK) (Escherichia coli K-12; A282P/H192P/I365L) (protein)
chain: SSRKELANAIRALSMDAVQKAKSGHPGAPMGMADIAEVLWRDFLKHNPQNPSWADRDRFVLSNGHGSMLIYSLLHLTGYDLPMEELKNFRQLHSKTPGHPEVGYTAGVETTTGPLGQGIANAVGMAIAEKTLAAQFNRPGHDIVDHYTYAFMGDGCMMEGISHEVCSLAGTLKLGKLIAFYDDNGISIDGPVEGWFTDDTAMRFEAYGWHVIRDIDGHDAASIKRAVEEARAVTDKPSLLMCKTIIGFGSPNKAGTHDSHGAPLGDAEIALTREQLGWKYPPFEIPSEIYAQWDAKEAGQAKESAWNEKFAAYAKAYPQEAAEFTRRMKGEMPSDFDAKAKEFIAKLQANPAKIASRKASQNALEAFGPLLPEFLGGSADLAPSNLTLWSGSKAINEDAAGNYIHYGVREFGMTAIANGISLHGGFLPYTSTFLMFVEYARNAVRMAALMKQRQVMVYTHDSIGLGEDGPTHQPVEQVASLRVTPNMSTWRPCDQVESAVAWKYGVERQDGPTALILSRQNLAQQERTEEQLANIARGGYVLKDCAGQPELIFIATGSEVELAVAAYEKLTAEGVKARVVSMPSTDAFDKQDAAYRESVLPKAVTARVAVEAGIADYWYKYVGLNGAIVGMTTFGESAPAELLFEEFGFTVDNVVAKAKELL
notes: homodimer of 70- to 74-kDa monomers; holo enzyme with ThDP and Mg2+
B2: Escherichia coli transketolase (TK) (Escherichia coli K-12; A282P/G506A/H192P/I365L) (protein)
chain: B1 chain with G505A
notes: as for B1
B3: Escherichia coli transketolase (TK) (Escherichia coli K-12; A282P/G506A/H192P) (protein)
chain: B1 chain with L364I, G505A
notes: as for B1

Substrate: O=CCO
Test: steady-state enzyme kinetics
Assay type: biochemical, Escherichia coli
Settings: 50 mM Li-HPA (lithium beta-hydroxypyruvate, saturating), 4-80 mM glycolaldehyde

Question: What does the source list for B1?
Answer: Km: 19.5(2.1) mM; kcat: 68.9(2.6) s-1

Question: B2 was tested. Which Km did it give?
Answer: The Km was 22.7(2.2) mM.

Question: What about the kcat of the same protein?
Answer: The kcat was 58.3(2.1) s-1.

Question: What does the source list for B3?
Answer: Km: 20.2(1.5) mM; kcat: 54.3(1.4) s-1
